Source: publication PMC11722290 (bioRxiv, 2025)
One block for each molecule: values may come before it.

B1: Lis1^AAA5 (Lis1 M172K, D192K, Y225A, C226D) (natural protein)
chain: VLSQRQRDELNRAIADYLRSNGYEEAYSVFKKEAELDVNEELDKKYAGLLEKKWTSVIRLQKKVMELESKLNEAKEEFTSGGPLGQKRDPKEWIPRPPEKYALSGHRSPVTRVIFHPVFSVMVSASEDATIKVWDYETGDFERTLKGHTDSVQDISFDHSGKLLASCSADKTIKLWDFQGFECIRTMHGHKHNVSSVAIMPNGDHIVSASRDKTIKMWEVQTGADVKTFTGHREWVRMVRPNQDGTLIASCSNDQTVRVWVVATKECKAELREHEHVVECISWAPESSYSSISEATGSETKKSGKPGPFLLSGSRDKTIKMWDVSTGMCLMTLVGHDNWVRGVLFHSGGKFILSCADDKTLRVWDYKNKRCMKTLNAHEHFVTSLDFHKTAPYVVTGSVDQTVKVWECR
B3: Lis1^AAA6 (Lis1 N203K, D205K, Q222A) (natural protein)
chain: VLSQRQRDELNRAIADYLRSNGYEEAYSVFKKEAELDVNEELDKKYAGLLEKKWTSVIRLQKKVMELESKLNEAKEEFTSGGPLGQKRDPKEWIPRPPEKYALSGHRSPVTRVIFHPVFSVMVSASEDATIKVWDYETGDFERTLKGHTDSVQDISFDHSGKLLASCSADMTIKLWDFQGFECIRTMHGHDHNVSSVAIMPKGKHIVSASRDKTIKMWEVATGYCVKTFTGHREWVRMVRPNQDGTLIASCSNDQTVRVWVVATKECKAELREHEHVVECISWAPESSYSSISEATGSETKKSGKPGPFLLSGSRDKTIKMWDVSTGMCLMTLVGHDNWVRGVLFHSGGKFILSCADDKTLRVWDYKNKRCMKTLNAHEHFVTSLDFHKTAPYVVTGSVDQTVKVWECR
B4: Lis1^linker (Lis1 E300K, K303E, S304R, M329A) (natural protein)
chain: VLSQRQRDELNRAIADYLRSNGYEEAYSVFKKEAELDVNEELDKKYAGLLEKKWTSVIRLQKKVMELESKLNEAKEEFTSGGPLGQKRDPKEWIPRPPEKYALSGHRSPVTRVIFHPVFSVMVSASEDATIKVWDYETGDFERTLKGHTDSVQDISFDHSGKLLASCSADMTIKLWDFQGFECIRTMHGHDHNVSSVAIMPNGDHIVSASRDKTIKMWEVQTGYCVKTFTGHREWVRMVRPNQDGTLIASCSNDQTVRVWVVATKECKAELREHEHVVECISWAPESSYSSISEATGSKTKERGKPGPFLLSGSRDKTIKMWDVSTGACLMTLVGHDNWVRGVLFHSGGKFILSCADDKTLRVWDYKNKRCMKTLNAHEHFVTSLDFHKTAPYVVTGSVDQTVKVWECR

Columns and labels:
[1] = molecular target: full-length human dynein (cytoplasmic dynein-1), wild type (human) (UniProt Q14204); assay: mass photometry
[2] = molecular target: full-length human dynein (cytoplasmic dynein-1), wild type (human) (UniProt Q14204); assay: cryo-EM structure
mass photometry = molecular target: the molecule itself; assay: mass photometry
human Lis1, wild type = molecular target: T1, human Lis1, wild type (human, UniProt P43034 2-410); assay: mass photometry
T1 sequence: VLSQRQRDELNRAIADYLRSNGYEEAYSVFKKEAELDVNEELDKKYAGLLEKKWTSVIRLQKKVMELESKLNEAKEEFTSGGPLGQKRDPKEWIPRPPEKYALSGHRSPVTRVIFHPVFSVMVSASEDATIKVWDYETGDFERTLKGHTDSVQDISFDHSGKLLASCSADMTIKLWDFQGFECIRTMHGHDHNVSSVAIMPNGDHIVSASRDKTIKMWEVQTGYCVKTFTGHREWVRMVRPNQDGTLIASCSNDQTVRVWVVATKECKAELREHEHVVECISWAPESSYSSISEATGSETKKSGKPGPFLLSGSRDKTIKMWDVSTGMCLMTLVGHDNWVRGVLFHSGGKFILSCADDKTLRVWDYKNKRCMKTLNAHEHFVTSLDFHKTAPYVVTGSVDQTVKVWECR

[3] = molecular target: B4; assay: mass photometry
[4] = molecular target: B3; assay: mass photometry
[5] = molecular target: B1; assay: mass photometry

- percent of 1:1 dynein:Lis1 complex [1]: 37%
- percent of complex formation [1]: 69%
- stoichiometry N (Lis1 dimer per dynein) [1]: 1
- stoichiometry N (Lis1 per dynein) [1]: 1
- percent of autoinhibited dynein particles in Phi^L-Lis1 [2]: 57.3%
- stoichiometry N (Lis1 dimer per dynein) [2]: 1
Molecule: human Lis1, wild type (from UniProt P43034 2-410) (natural protein)

Molecule: B1
- stoichiometry N (mass photometry): 2

- binding result (human Lis1, wild type): binds
- binding result [3]: binds
- binding result [4]: binds
- binding result [5]: binds
B2: human Nde1 (N-terminal residues 1-190) (domain or fragment)
chain: MEDSGKTFSSEEEEANYWKDLAMTYKQRAENTQEELREFQEGSREYEAELETQLQQIETRNRDLLSENNRLRMELETIKEKFEVQHSEGYRQISALEDDLAQTKAIKDQLQKYIRELEQANDDLERAKRATIMSLEDFEQRLNQAIERNAFLESELDEKENLLESVQRLKDEARDLRQELAVQQKQEKPR

Molecule: B3
- stoichiometry N (mass photometry): 2

Molecule: B4
- stoichiometry N (mass photometry): 2
